The target of the assay is recombinant Tg-p43 (E. coli-derived) (Toxoplasma gondii). As to the kind of experiment: cross-linking; purified E. coli-derived Tg-p43 at 1 mg/ml in PBS with 10% glycerol, 0.25% glutaraldehyde on ice, stopped with Tris-HCl pH 8; Coomassie-stained SDS-PAGE; beta-amylase and carbonic anhydrase for comparison.

Usually stoichiometry N stands for the number of molecules, sites or subunits per partner or assembly.

With “recombinant Tg-p43 (E. coli-derived) (natural protein)”, the stoichiometry N amounted to 2.

The values above are taken from PMC3930741.
